Data: patent publication US20230265201A1 (published 2023)
Numbering of substitutions follows the chain as printed.

T1: rhesus recombinant CD70 (FLAG-TNC-rhesus CD70) (rhesus macaque (Macaca mulatta), UniProt F7GPA5 174-316)
T1 construct: also called rhesus Flag-TNC-CD70; Rhesus monkey; not shown: Flag tag and TNC trimerisation domain
T1 sequence: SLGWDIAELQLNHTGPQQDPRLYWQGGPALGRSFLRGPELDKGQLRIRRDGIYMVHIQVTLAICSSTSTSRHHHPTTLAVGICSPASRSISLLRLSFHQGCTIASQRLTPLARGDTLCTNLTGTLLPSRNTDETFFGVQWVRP

B1: 57B6 Fab (Fab, V domains shown)
VH: QLQLVESGGGLVQPGGSLRLSCAASGFSFSHYAMSWVRQAPGKGLEWVSGDNTYDGGTRYQDSVKGRFTISRDNGKNTLYLQMNSLKPEDTAVYYCAKDTGRGIMGEYGMDYWGKGTLVTVSS
VL: QTVVTQEPSLSVSPGGTVTLTCGLKSGSVTSSNYPAWYQQTPGQAPRLLIYNTNSRHSGVPSRFSGSISGNKAALTITGAQPEDEADYYCALYMGSGSANAMFGGGTHLTVLG
notes: Llama-derived Fab from phage display; MYC tag at C-terminus of Fd
B2: 9D1 Fab (Fab, V domains shown)
VH: EVQLVESGGGLVQPGGSLRLSCAASGFTFSVYYMNWVRQAPGKGLEWVSDINNEGGTTYYADSVKGRFTISRDNAKNTLTLQMNSLKPEDTALYYCVRDAGYSNHVPIFDSWGQGTQVIVAS
VL: QAVVTQEPSLSVSPGGTVTLTCGLSSGSVTSSHYPGWYQQTPGQAPRLLIFNTNSRHSGVPSRFSGSISGNKAALTITGAQPEDEADYYCALLNIDDGSTMFGGGTHLTVLG
notes: as for B1
B3: 5F4 Fab (Fab, V domains shown)
VH: EVQVQESGGGLVHPGGSLKLSCAASGFTFDTYAMSWVRQAPGKGLEWVSAISWSGGETFYAESMKGRFTISRNNAKNTLYLQMNSLKSEDTAVYYCARGMGLAEGLTDWGQGTQVTVSS
VL: QAVVTHPPSLSASPGSSVRLTCTLISGDNIGGYDISWYQQKTGSPPRYLLYYYSDSYKHQSSGVPSRFSGSKDASANAGLLLISGLQSEDEADYYCSAYKSGSYKAPVFGGGTHLTVLG
notes: as for B1
B4: 9E1 Fab (Fab, V domains shown)
VH: EVQLQESGGGVVQPGGSLRLSCAASGFTFDDYAMSWVRQAPGKGLEWVSSIYMYDSSTYYADSVKGRFTISTDNAKNTVYLQMNSLKSEDTAVYYCAKDINRSYGSSWSHFGPIFSSWGQGTQVTVSS
VL: QAVVTQEPSLSVSPGGTVTLTCGLTSGSVTSSNYPDWYQQTPGQAPRLLIYNTNSRHSGVPSRFSGSISGNKAALTITGAQPEDEADYYCNLYMGSGGSKVFGGGTKLTVLG
notes: as for B1
B5: 9G2 Fab (Fab, V domains shown)
VH: QVQLVESGGGLMQPGGSLRLSCAASGFTFSSSAMSWVRQAPGKGLEWVSSIYSDSSYTYYADSVKSRFTISTDNAKNTLYLQMNSLKPDDTAVYYCAGSSDYEGSFASWGQGTQVTVSS
VL: QSVVTQPPSLSASPGSSVRLTCTLSSGNSVGNYDISWYQQKAGSPPRYLLYYYSDSVKHQGSGVPSRFSGSSDASANAGLLLISGLQPEDEADYYCSAYKSGSHVFGGGTKLTVLG
notes: as for B1
B6: 9B2 Fab (Fab, V domains shown)
VH: B5 VH with V2L, L4V, S31G, D54H, S56M, G98A, S105L, A107V
VL: B5 VL with S2A, V4L, S25N, G27A, N32S, V57L, K58S, S72T, K100N, S101R
notes: as for B1
B7: 4D2 Fab (Fab, V domains shown)
VH: QVQLQESGPGLVKPSQTLSLACTVSGGSITTSYYYWSWIRQPPGKGLEWMGAIGSRGSTYYSPSLKTRTSISRDTSKNQFTLQLSSVTPEDTAVYYCARVTGEITYNSGSYYYTLNLFDYWGQGTQVTVSS
VL: QSVLTQPPSLSASPGSSVRLTCTLSSGNSVGNYDISWYQQKAGSPPRYLLYYYSDSYKNQGSGVPSRFSGSKDPSANAGLLLISGLQAEDEADYYCSVSNSGTYKPVFGGGSKLTVLG
notes: as for B1
B8: 1C2 Fab (Fab, V domains shown)
VH: ELQVVESGGGLVQPGGSLRLSCAASGFTLSNYWMHWVRQAPRKGLEWVSTISTDNSRTYYADSVKGRFTISRDHAKNTLILQMNSLKSEDTAVYYCIRGSDYEHWGQGTQVTVSS
VL: QTVVTQEPSLSVSPGGTVTLTCGLSSGSVTTTNYPGWFQQTPGQAPRTLIYSTSSRHSGVPSRFSGSISGNKAALTITGAQPEDEADYYCALEEIGSYTYMFGGGTHLTVLG
notes: as for B1

Target: T1, rhesus recombinant CD70 …
Assay: Biacore, Fab over immobilised rhesus CD70

Binder | koff [s⁻¹]
B1 | 4e-05
B2 | 0.0002
B3 | 0.0005
B4 | 0.0002
B5 | 0.00018
B6 | 0.00061
B7 | 0.00029
B8 | 0.00032
